{"source": "paper PMC6294567", "about": "“The C-terminal D/E-rich domain of MBD3 is a putative Z-DNA mimic that competes for Zα DNA-binding activity” (Nucleic Acids Research, 2018)", "molecules": {"B1": {"name": "MBD3 (full-length human MBD3; residue 1–291), tag-free, O95983-1 1-291 (natural protein)", "chain": "MERKRWECPALPQGWEREEVPRRSGLSAGHRDVFYYSPSGKKFRSKPQLARYLGGSMDLSTFDFRTGKMLMSKMNKSRQRVRYDSSNQVKGKPDLNTALPVRQTASIFKQPVTKITNHPSNKVKSDPQKAVDQPRQLFWEKKLSGLNAFDIAEELVKTMDLPKGLQGVGPGCTDETLLSAIASALHTSTMPITGQLSAAVEKNPGVWLNTTQPLCKAFMVTDEDIRKQEELVQQVRKRLEEALMADMLAHVEELARDGEAPLDKACAEDDDEEDEEEEEEEPDPDPEMEHV"}, "B2": {"name": "FLAG-MBD3: FLAG-tagged full-length MBD3 transiently expressed in 293F cells (protein)", "chain": "B1 chain", "modifications": "left off: FLAG, end not stated, kept", "notes": "FLAG-tagged full-length MBD3 transiently expressed in 293F cells"}, "B3": {"name": "MBD domain: MBD domain of MBD3; residues 1–72 (protein)", "chain": "MERKRWECPALPQGWEREEVPRRSGLSAGHRDVFYYSPSGKKFRSKPQLARYLGGSMDLSTFDFRTGKMLMS", "modifications": "left off: His6, N-terminal, cleaved"}, "B4": {"name": "MBDDE (MBD domain of MBD3 connected to the acidic tail; residues 263–291), tag-free (domain or fragment, human, UniProt O95983-1 1-72, looked up)", "chain": "MERKRWECPALPQGWEREEVPRRSGLSAGHRDVFYYSPSGKKFRSKPQLARYLGGSMDLSTFDFRTGKMLMSDKACAEDDDEEDEEEEEEEPDPDPEMEHV", "notes": "MBD domain of human MBD3; its limits (1-72) are those printed for the MBD3MBD construct; No linker between the two stretches is mentioned; The protein was partly degraded from the C-terminal disordered region by mass spectrometry; source: E. coli BL21(DE3), purified (Ni-NTA, TEV cleavage, reverse Ni-NTA, gel filtration); not shown: His6, N-terminal, cleaved"}, "B5": {"name": "MBDDE: MBD domain of MBD3 connected to the acidic tail; residues 263–291 (protein)", "chain": "B4 chain", "modifications": "left off: His6, N-terminal, cleaved"}}, "key": {"[1]": {"target": "T1, Zα and 6-FAM-d(CG)6 duplex (Homo sapiens, UniProt P55265)", "T1 construct": "Zα of human ADAR1; residues 133–209; His6 (pMCSG7, followed by a TEV site) (N, cleaved yes); made in house; host or cells: E. coli BL21(DE3)", "T1 sequence (P55265 133-209)": "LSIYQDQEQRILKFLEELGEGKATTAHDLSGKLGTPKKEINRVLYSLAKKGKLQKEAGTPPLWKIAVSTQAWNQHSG", "experiment": "FP competition: displacement of Zα binding to 6-FAM-d(CG)6"}, "[2]": {"target": "MBDDE (MBD domain of MBD3 connected to the acidic tail; residues 263–291), tag-free (human) (UniProt O95983)", "experiment": "SEC; Zα (400 μM) and MBDDE (100 μM), or Zα and MBD under the same conditions, 4:1 molar ratio; 20 mM Tris-HCl pH 7.5, 50 mM NaCl, 1 mM TCEP; Superdex 75 10/300 GL; fractions on SDS-PAGE"}, "[3]": {"target": "Zα, tag-free (Z-DNA binding domain of human ADAR1, residues 133-209) (human) (UniProt P55265)", "experiment": "fluorescence polarisation; competition: unlabelled peptide added to the pre-incubated mixture of Zα and 6-FAM-d(CG)6 duplex; 20 mM HEPES-NaOH pH 7.5, 50 mM NaCl, 1 mM DTT; dose-response (variable slope) model"}, "[4]": {"target": "T2, MBD3 (full-length human MBD3; residue 1–291), tag-free (human), O95983", "T2 chain": "B1 chain", "experiment": "SEC; purified MBD3 alone on Superdex 200 increase 10/300 GL against protein standards", "details": "remark: other sources report otherwise"}, "endogenous ADAR1": {"test_system": "endogenous ADAR1", "experiment": "FLAG immunoprecipitation of endogenous ADAR1 in 293F cells", "format": "cell-based, human", "details": "anti-ADAR1 western blot", "experimental": "For expressing FLAG-MBD3 and its mutants in 293F cells (Freestyle™ 293 Expression System; Invitrogen), the DNA fragments were PCR amplified and inserted into HindIII site of pFLAG-CMV-2 vector (Sigma-Aldrich). The plasmids were purified by EasyPrep EndoFree Maxi Plasmid Extraction Kit (BIOTOOLS Co., Ltd, Taiwan) and transiently transfected into 293F cells using 293fectin (Invitrogen) according to the manufacturer's guidelines.\nAfter 48 h posttransfection, the cells were washed with cold PBS and lysed with lysis buffer [50 mM Tris–HCl pH 7.5, 0.3% NP-40, 100 mM potassium acetate, 10% glycerol, 50 U/ml Benzonaes (Novagen) and EDTA-free protease inhibitor cocktail tablet (Roche)]. The lysates were incubated with anti-FLAG M2 Affinity Gel (A2220; Sigma-Aldrich) on a rotation at 4°C overnight. […] The immunoprecipitates were eluted by FLAG peptide (F4799; Sigma-Aldrich) and resolved by a NuPAGE 12% Bis–Tris gel (Invotrogen). Specific antibodies used for western blotting were Rabbit anti-FLAG (1:5000; F7425; Sigma-Aldrich) and rabbit anti-ADAR1 D7E2M (1:1000; 14175; Cell Signaling Technology)."}, "Zα": {"target": "T3, Zα (Homo sapiens, UniProt P55265)", "T3 construct": "Zα of human ADAR1; residues 133–209; His6 (pMCSG7, followed by a TEV site) (N, cleaved yes); made in house; host or cells: E. coli BL21(DE3)", "T3 sequence (P55265 133-209)": "T1 sequence (P55265 133-209)", "experiment": "SEC / SDS-PAGE complex formation with Zα", "format": "binding", "experimental": "Equimolar amounts (0.1 mM) of Zα and DE-rich peptide were incubated on ice for 1 h in a buffer containing 20 mM HEPES–NaOH pH 7.5, 50 mM NaCl, 1 mM DTT. The mixture was then loaded on a Superdex 30 16/600 column (GE Healthcare) equilibrated in the same buffer. The fractions from the peaks corresponding to Zα alone and the complex of Zα and DE-rich peptide were collected and used for chemical cross-linking.\nTo analyze complex formation of Zα and other proteins (MBD3, MBD or MBDDE), the mixtures were incubated on ice for 1 h in a buffer containing 20 mM Tris–HCl pH 7.5, 50 mM NaCl, 1 mM TCEP. The mixture was then loaded on a Superdex 75 or Superdex 200 increase 10/300 column (GE Healthcare)."}, "d(CG)6 duplex": {"test_system": "d(CG)6 duplex", "experiment": "Circular dichroism of d(CG)6 DNA conformation", "experimental": "CD spectra were measured at 24°C on a J-815 Spectrometer (JASCO) using a 1 mm path length quartz cell. Prepare 7.5 μM DNA duplex in a buffer consisting of 5 mM HEPES–NaOH pH 7.5, 25 mM NaCl and 1 mM DTT, and in the absence or presence of indicated concentration of proteins. Spectra were recorded between 235 and 305 nm wavelength with a data pitch of 1 nm, bandwidth of 1 nm and with two accumulations at a scanning speed of 10 nm/min.\nFigure 6. Zα can compete with the MBD domain for binding to d(CG)6, but not vice versa. (A) CD spectra of the d(CG)6 duplex in the presence of Zα. CD spectra of (B) the d(CG)6 and (C) the d(C^mG)6 duplex, respectively, in the presence of the MBD domain. (D) Monitoring of the change in CD spectra with the addition of increased amounts of Zα to the pre-incubated mixture of the MBD domain and d(CG)6. (E) Monitoring of the change in CD spectra with the addition of increased amount of the MBD domain to the pre-incubated mixture of Zα and d(CG)6. Spectra are expressed in absolute values of ellipticity in millidegrees (mdeg)."}, "[5]": {"target": "T4, MBD domain of MBD3 (residues 1–72), tag-free (human, UniProt O95983-1 1-72)", "T4 chain": "B3 chain", "experiment": "FP"}, "Sso7d": {"target": "T5, Sso7d (UniProt P39476 1-64)", "T5 sequence (looked up)": "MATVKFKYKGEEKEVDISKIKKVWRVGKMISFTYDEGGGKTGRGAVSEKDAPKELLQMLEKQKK", "experiment": "fluorescence polarisation; FITC-labelled D/E-rich peptide against titrated protein; 20 mM HEPES-NaOH pH 7.5, 50 mM NaCl, 1 mM DTT; one-site total binding model", "details": "both partners purified"}, "[6]": {"target": "T6, Zα, tag-free (Z-DNA binding domain of human ADAR1, residues 133-209) (human, UniProt P55265 133-209)", "T6 construct": "Zα domain of human ADAR1, residues 133-209; from pMCSG7-Zα; source: E. coli BL21(DE3), purified (Ni-NTA, TEV cleavage, reverse Ni-NTA, gel filtration); not shown: His6, N-terminal, cleaved", "T6 sequence (looked up)": "T1 sequence (P55265 133-209)", "experiment": "fluorescence polarisation; FITC-labelled D/E-rich peptide against titrated protein; 20 mM HEPES-NaOH pH 7.5, 50 mM NaCl, 1 mM DTT; one-site total binding model", "details": "both partners purified"}, "[7]": {"target": "the molecule itself", "experiment": "SEC; purified MBDDE or MBD alone on Superdex 75 10/300 GL against protein standards"}, "[8]": {"experiment": "Stability of E. coli-expressed protein", "format": "physicochemical", "details": "recombinant E. coli-expressed protein"}, "[9]": {"target": "T7, Zα, tag-free (Z-DNA binding domain of human ADAR1, residues 133-209) (human), P55265", "T7 chain": "T1 sequence (P55265 133-209)", "experiment": "fluorescence polarisation; competition: unlabelled peptide added to the pre-incubated mixture of Zα and 6-FAM-d(CG)6 duplex; 20 mM HEPES-NaOH pH 7.5, 50 mM NaCl, 1 mM DTT; dose-response (variable slope) model"}}, "note": "Where “and” joins values, the source holds several entries; their conditions need not be identical. Identical values can stand only once. Primed or numbered codes have the meaning given here. Where no end group is shown, it is not given here. FITC′ = fluorescein isothiocyanate label", "data": [{"molecule": "poly-L-glutamic acid [polyE]", "values": [{"measurement": "competition with d(CG)6 for binding to Zα (in words)", "setting": "[1]; 6-FAM-d(CG)6", "value": "could compete with Zα binding to d(CG)6, although the efficiency was lower than full-length D/E-rich peptide"}, {"measurement": "concentration at 50% displacement (IC50)", "setting": "[1]; pre-incubated Zα and 6-FAM-d(CG)6, triplicate, 95% CI 3.4–8.9 μg/ml", "value": 5.5, "unit": "µg/mL"}]}, {"molecule": "Zα, tag-free (Z-DNA binding domain of human ADAR1, residues 133-209) (from UniProt P55265 133-209) (domain or fragment)", "values": [{"measurement": "stoichiometry N", "setting": "[2]", "value": "1 Zα per MBDDE and 2 Zα per MBDDE"}]}, {"molecule": "poly-L-glutamic acid (1500–5500 Da; Sigma) peptide", "values": [{"measurement": "IC50", "setting": "[3]", "value": "1000 to 3700", "unit": "nM"}]}, {"molecule": "B1", "values": [{"measurement": "stoichiometry N", "setting": "[4]", "value": 2}]}, {"molecule": "B2", "values": [{"measurement": "co-immunoprecipitation of ADAR1-p110 (lacking Zα)", "setting": "endogenous ADAR1; 293F cells, FLAG-IP", "value": "also pulled down"}, {"measurement": "co-immunoprecipitation of endogenous ADAR1", "setting": "endogenous ADAR1; transient expression in 293F cells, anti-FLAG resin", "value": "endogenous ADAR1 was indeed pulled down"}]}, {"molecule": "B3", "values": [{"measurement": "complex formation with Zα on SEC", "setting": "Zα; Zα : MBD 4:1 molar ratio, Superdex 75 10/300 GL", "value": "no complex formation was detected"}, {"measurement": "DNA conformation after binding", "setting": "d(CG)6 duplex; CD 235-305 nm, 24°C, 7.5 μM DNA duplex, 5 mM HEPES–NaOH pH 7.5, 25 mM NaCl, 1 mM DTT", "value": "kept the duplex DNA in B-form"}, {"measurement": "competition for binding to d(CG)6 (MBD domain added to pre-incubated Zα and d(CG)6)", "setting": "d(CG)6 duplex; CD, increasing MBD domain", "value": "could not compete with the binding of Zα and Z-DNA"}]}, {"molecule": "{FITC′}-DKACAEDDDEEDEEEEEEEPDPDP", "note": "[D/E-rich peptide of MBD3, FITC-labelled]", "values": [{"measurement": "Kd", "setting": "[5]", "value": 21.2, "unit": "nM"}, {"measurement": "Kd", "setting": "Sso7d", "value": "1100 ± 200", "unit": "nM"}, {"measurement": "Kd", "setting": "[6]", "value": "29.1 ± 1.7", "unit": "nM"}]}, {"molecule": "B4", "values": [{"measurement": "stoichiometry N", "setting": "[7]", "value": 2}]}, {"molecule": "B5", "values": [{"measurement": "efficiency of interaction with Zα relative to D/E peptide", "setting": "Zα; SEC, Zα and MBDDE", "value": "less efficiently than with D/E peptide"}, {"measurement": "complex formation with Zα on SEC", "setting": "Zα; Zα 100 μM : protein 25 μM (4:1), ice 1 h, 20 mM Tris–HCl pH 7.5, 50 mM NaCl, 1 mM TCEP", "value": "could not detect stable complex formation of Zα and MBDDE"}, {"measurement": "complex formation with Zα on SEC", "setting": "Zα; Zα 400 μM : MBDDE 100 μM (4:1), ice 1 h, Superdex 75, pH 7.5", "value": "a small amount of MBDDE and Zα complex was detected"}, {"measurement": "protein stability (in words)", "setting": "[8]", "value": "more sensitive to protease than the MBD domain"}]}, {"molecule": "DKACAEDDDEEDEEEEEEEPDPDP (modifications not checked)", "note": "[D/E-rich peptide of MBD3, unlabelled (full-length D/E-rich peptide)]", "values": [{"measurement": "IC50", "setting": "[9]", "value": 164, "unit": "nM"}]}]}
